Like-named read-outs stand apart in the source and are kept apart here.

Common to all, as to assay: two-hybrid library CCmax;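 also: natural log of median RNA to DNA barcode read ratio; higher means stronger binding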
One assay addresses T1, 4H2961-AA.
T1 chain: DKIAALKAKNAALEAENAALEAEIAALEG
Particulars: mean of both orientations.

A further assay has as its target T2, 4H2580-AA.
T2 chain: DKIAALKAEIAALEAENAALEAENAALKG
Particulars: mean of both orientations.

For the next assay, the target named is T3, 4H341-AA.
T3 chain: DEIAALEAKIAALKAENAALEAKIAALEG
Conditions: mean of both orientations.

For another assay, the target named is T4, 4H1913-AA.
T4 chain: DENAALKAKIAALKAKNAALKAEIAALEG
Conditions: mean of both orientations.

A further assay deals with T5, 4H3340-AA.
T5 chain: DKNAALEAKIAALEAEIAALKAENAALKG
Particulars: mean of both orientations.

A further assay deals with T6, 4H1864-AA.
T6 chain: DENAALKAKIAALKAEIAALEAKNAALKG
Particulars: mean of both orientations.

The next assay has as its target T7, 4H1626-AA.
T7 chain: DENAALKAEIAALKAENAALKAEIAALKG

The target of the next assay is T8, 4H1629-AA.
T8 chain: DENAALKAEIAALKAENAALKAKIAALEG
Particulars: mean of both orientations.

Another assay concerns the target T9, 4H2617-AA.
T9 chain: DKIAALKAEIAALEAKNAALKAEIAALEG
Conditions: mean of both orientations.

The target of another assay is T10, 4H3133-AA.
T10 chain: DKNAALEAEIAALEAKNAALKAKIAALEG
Particulars: mean of both orientations.

The target of the next assay is T11, 4H317-AA.
T11 chain: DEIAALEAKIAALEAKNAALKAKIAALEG
Particulars: mean of both orientations.

The target in a further assay is T12, 4H993-AA.
T12 chain: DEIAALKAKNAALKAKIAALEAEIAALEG
Conditions: mean of both orientations.

For a further assay, the target named is T13, 4H780-AA.
T13 chain: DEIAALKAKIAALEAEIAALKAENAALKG
Particulars: mean of both orientations.

The target in the next assay is T14, 4H678-AA.
T14 chain: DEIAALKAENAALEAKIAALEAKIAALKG
Particulars: mean of both orientations.

For another assay, the target named is T15, 4H2729-AA.
T15 chain: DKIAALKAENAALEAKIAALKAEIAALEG
Particulars: mean of both orientations.

A further assay deals with T16, 4H1636-AA.
T16 chain: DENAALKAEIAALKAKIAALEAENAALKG
Conditions: mean of both orientations.

The target of the next assay is T17, 4H3921-AA.
T17 chain: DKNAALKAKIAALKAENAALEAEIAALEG
Conditions: mean of both orientations.

The next assay has as its target T18, 4H1388-AA.
T18 chain: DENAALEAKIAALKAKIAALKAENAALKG
Particulars: mean of both orientations.

The next assay addresses T19, 4H906-AA.
T19 chain: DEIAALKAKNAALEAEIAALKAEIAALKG
Conditions: mean of both orientations.

Another assay addresses T20, 4H3655-AA.
T20 chain: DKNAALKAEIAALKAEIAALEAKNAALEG
Particulars: mean of both orientations.

The target in the next assay is T21, 4H2553-AA.
T21 chain: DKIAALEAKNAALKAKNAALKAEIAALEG
Particulars: mean of both orientations.

A further assay deals with T22, 4H1513-AA.
T22 chain: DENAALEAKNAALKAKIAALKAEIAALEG
Particulars: mean of both orientations.

The next assay has as its target T23, 4H1310-AA.
T23 chain: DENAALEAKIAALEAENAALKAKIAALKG

Another assay has as its target T24, 4H1845-AA.
T24 chain: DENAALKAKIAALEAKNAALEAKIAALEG
Conditions: mean of both orientations.

The target of the next assay is T25, 4H3588-AA.
T25 chain: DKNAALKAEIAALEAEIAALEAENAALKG

The target in the next assay is T26, 4H3343-AA.
T26 chain: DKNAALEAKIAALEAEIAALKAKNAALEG
Particulars: mean of both orientations.

In the next assay the target is T27, 4H3162-AA.
T27 chain: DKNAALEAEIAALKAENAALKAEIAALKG
Conditions: mean of both orientations.

The next assay has as its target T28, 4H340-AA.
T28 chain: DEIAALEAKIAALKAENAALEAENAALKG

For another assay, the target named is T29, 4H1478-AA.
T29 chain: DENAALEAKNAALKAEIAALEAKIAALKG
Conditions: mean of both orientations.

The target in a further assay is T30, P9-AA.
T30 chain: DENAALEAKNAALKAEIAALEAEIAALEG
Conditions: mean of both orientations.

The next assay addresses T31, O6-AA.
T31 chain: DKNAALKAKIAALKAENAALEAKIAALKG
Conditions: mean of both orientations.

In a further assay the target is T32, P12-AA.
T32 chain: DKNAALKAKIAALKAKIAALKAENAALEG
Particulars: mean of both orientations.

The target of another assay is T33, AP5-AA.
T33 chain: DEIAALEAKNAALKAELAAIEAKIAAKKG
Conditions: mean of both orientations.

The target of another assay is T34, 4H_APH2.
T34 chain: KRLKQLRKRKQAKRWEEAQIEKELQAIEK

A further assay has as its target T35, AP1-AA.
T35 chain: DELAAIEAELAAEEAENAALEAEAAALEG
Particulars: mean of both orientations.

In another assay the target is T36, AP7-AA.
T36 chain: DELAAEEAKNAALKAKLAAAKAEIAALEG
Conditions: mean of both orientations.

Another assay concerns the target T37, zCON9_A.
T37 chain: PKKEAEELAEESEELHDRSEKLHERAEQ

A further assay deals with T38, P4-AA.
T38 chain: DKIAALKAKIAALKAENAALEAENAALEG
Particulars: mean of both orientations.

The next assay concerns the target T39, 4H3587-AA.
T39 chain: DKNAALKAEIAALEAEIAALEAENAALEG
Particulars: mean of both orientations.

The next assay concerns the target T40, 4H4038-AA.
T40 chain: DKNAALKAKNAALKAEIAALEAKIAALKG
Particulars: mean of both orientations.

The target of the next assay is T41, 4H1392-AA.
T41 chain: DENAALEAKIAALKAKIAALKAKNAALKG
Particulars: mean of both orientations.

In a further assay the target is T42, 4H2442-AA.
T42 chain: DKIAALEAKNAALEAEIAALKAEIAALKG
Conditions: mean of both orientations.

Another assay addresses T43, 4H687-AA.
T43 chain: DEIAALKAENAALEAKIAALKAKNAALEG
Conditions: mean of both orientations.

B1: 4H1064-AA (peptide)
chain: DENAALEAEIAALEAKIAALEAKNAALKG
As for B1, the interaction score was -1.24 in the assay with 4H2961-AA, 1.19 with 4H2580-AA, -1.26 with 4H341-AA and -0.972 with 4H1913-AA.

B2: 4H1626-AA (peptide)
chain: DENAALKAEIAALKAENAALKAEIAALKG
In the case of B2, the figures for the interaction score with 4H3340-AA, with 4H1864-AA and with 4H1626-AA were -1.43, -1.36 and 1.63, respectively.

B3: 4H1153-AA (peptide)
chain: DENAALEAENAALEAEIAALEAEIAALEG
Regarding B3, the interaction score with 4H1629-AA was -1.34; in the assay with 4H2617-AA, -2.01; with 4H3133-AA, -2.15; with 4H317-AA, -1.45; with 4H993-AA, 1.59; with 4H780-AA, -1.44. The interaction score in the assay with 4H678-AA was -0.487; with 4H2729-AA it was 0.0308; in the assay with 4H1636-AA, -1.31; in the assay with 4H3921-AA, -1.87; with 4H1388-AA, 0.435; with 4H906-AA, -1.21. Besides, the interaction score is -0.01 with 4H3655-AA; -0.371 with 4H2553-AA; 1.5 with 4H1513-AA; -1.28 with 4H1310-AA (mean of both orientations); -1.27 with 4H1845-AA; -1.29 with 4H3588-AA (mean of both orientations). Moreover, the interaction score in the assay with 4H3343-AA is -0.81; in the assay with 4H3162-AA it was -1.68; in the assay with 4H340-AA, -1.49.

B4: 4H1142-AA (peptide)
chain: DENAALEAEIAALKAKNAALEAKIAALKG
Regarding B4, the interaction score was -1.15 with 4H1629-AA; -0.11 with 4H3133-AA; -1.38 in the assay with 4H1864-AA; -1.65 with 4H1388-AA; -1.85 with 4H2553-AA; -1.67 with 4H1513-AA. In addition, the interaction score with 4H1310-AA (mean of both orientations) was -1.26; with 4H1845-AA, -0.689; with 4H3588-AA it was -1.17; with 4H1478-AA it was -0.804; in the assay with 4H3162-AA, -1.46; with 4H1626-AA (mean of both orientations), -0.818. In the assay with 4H340-AA (mean of both orientations), this molecule came in with an interaction score of -1.35.

B5: 4H171-AA (peptide)
chain: DEIAALEAENAALEAKIAALKAENAALEG
Turning to B5, the interaction score with 4H1864-AA was 0.435; with P9-AA it was -0.774; in the assay with O6-AA, -0.729.

B6: 4H3606-AA (peptide)
chain: DKNAALKAEIAALEAENAALEAKIAALKG
For the molecule B6, the interaction score is -0.654 in the assay with P12-AA; 1.33 in the assay with 4H993-AA; -0.771 with 4H678-AA; -1.72 with 4H906-AA; 2.26 with AP5-AA; -1.72 with 4H3655-AA. The interaction score with P9-AA is -0.51; with 4H_APH2, -2.3; with AP1-AA it was -1.62; with AP7-AA, -1.35; in the assay with zCON9_A, -1.36; with P4-AA, -0.573.

B7: 4H249-AA (peptide)
chain: DEIAALEAENAALKAKNAALKAEIAALEG
Turning to B7, the interaction score was 1.36 with 4H2961-AA, -0.825 with 4H2580-AA, -1.45 with 4H3340-AA and 0.538 with 4H341-AA.

B8: 4H1385-AA (peptide)
chain: DENAALEAKIAALKAKIAALKAEIAALEG
As for B8, the interaction score in the assay with 4H1864-AA was 0.56; with 4H3587-AA it was 1.58; in the assay with 4H1478-AA it was 0.852; with 4H4038-AA, 1.56; in the assay with 4H1392-AA, -0.355; with 4H1626-AA (mean of both orientations), -1.57.

B9: 4H1350-AA (peptide)
chain: DENAALEAKIAALKAEIAALEAKIAALKG
In the case of B9, the results for the interaction score in the assay with 4H3587-AA, with 4H4038-AA and with 4H1392-AA were 1.39, 0.909 and -0.186, respectively.

B10: 4H1310-AA (peptide)
chain: DENAALEAKIAALEAENAALKAKIAALKG
For the molecule B10, the interaction score with 4H1629-AA is -0.348; with 4H3133-AA, 0.253; in the assay with 4H1864-AA it was -1.48; with 4H1388-AA, -1.2; with 4H2553-AA it was -1.34; with 4H1513-AA it was -1.48. Moreover, the interaction score is 1.62 with 4H1310-AA; -0.784 in the assay with 4H1845-AA; -1.22 with 4H3588-AA (mean of both orientations); -1.2 in the assay with 4H1478-AA; -0.508 with 4H3162-AA; -0.373 with 4H1626-AA (mean of both orientations). Further, the interaction score in the assay with 4H340-AA (mean of both orientations) is -1.45.

B11: 4H1845-AA (peptide)
chain: DENAALKAKIAALEAKNAALEAKIAALEG
With B11, the interaction score is -0.676 with 4H3133-AA; -1.84 with 4H2553-AA; -1.87 with 4H2442-AA; -1.51 with 4H687-AA; -1.56 with 4H3588-AA (mean of both orientations); -1.73 in the assay with 4H3162-AA. Further, the interaction score with 4H340-AA (mean of both orientations) is -1.97.

B12: 4H2165-AA (peptide)
chain: DKIAALEAEIAALKAKNAALEAKIAALEG
In the case of B12, the interaction score in the assay with 4H2617-AA is 0.892; in the assay with 4H317-AA it was 0.575; in the assay with 4H993-AA, 0.0167; in the assay with 4H780-AA, -1.4; with 4H678-AA, -0.25; with 4H2729-AA it was -1.3. Moreover, the interaction score in the assay with 4H3921-AA is -1.58; with 4H906-AA it was -1.29; with 4H3655-AA, -1.37; with 4H3343-AA, -0.847.

B13: 4H1257-AA (peptide)
chain: DENAALEAENAALKAKIAALKAEIAALEG
With B13, the interaction score with 4H2961-AA was -1.08; with 4H2580-AA, -1.12; with 4H1845-AA, -1.49; with 4H2442-AA, -1.57; with 4H341-AA it was -1.24; with 4H687-AA, -1.24. The interaction score with 4H1913-AA was -0.977.

Values taken from publication PMC10397247.
